First the molecules themselves.
B1: WM-A1-2613 (antibody, V domains shown)
VH: QVQLQESGPGLVKPSGTLSLTCAVSGDSVISTDWWSWVRQPPGKELEWIGEIHHSGSTNYNPSLEGRVTISVDKSKNQFSLKLTSVTAVDTAVYYCSRGSGGRDAFDVWGQGTMITVSS
VL: QSALTQPPSSSGTPGQKVTISCSGSMSNIGGNYVSWYQQVPGTAPKLLIFKTNQGAAGVPDRFVGSKSGTSASLVISGLRPEDEATYYCASWDDIGDGPTWVFGGGTKLTVL
B2: WM-A1-3105 (antibody, V domains shown)
VH: QMQLVQSGAEVKRPGSSVKVSCKASGRSTYNYAFYWVRQAPGHGLEWMGGIIPIFGATNYAQKFQGRVTITADESTNTAYMEVTNLRSEDTAVYYCAKGSGNYYYGMDVWGQGTTVTVSS
VL: DIQMTQSPSSVSASVGDRVTITCRASQSVGTWLAWYQQKPGRAPKLLISAASSLHPGVPSRFSGSGSGTDFTLTISSLQPEDFATYYCQQADSFPYTFGQGTKLEIK
B3: WM-A1-3133 (antibody, V domains shown)
VH: QMQLVQSGGKLVQPGSSLRLSCAASGFSFDDYGMSWVRQAPGKGLEWVSAISGSGGSTYYADSVKGRFTISRDNSKNTLYLQMNSLRAEDTAVYYCARGGRVYGMDVWGQGTTVTVSS
VL: DIQMTQSPSSVSASVGDTVTITCRASHDIRRWLAWYQQKPGEVPKVLIYAAAVLHSGVPSRFSGSGSGTDFSLTITNLQPEDVATYYCQKYDSVPFTFGGGTKLEIK
B4: WM-A1-3102 (antibody, V domains shown)
VH: QMQLVQSGAEVKKPGSSVKVSCKASGGTFSSYAISWVRQAPGQGLEWMGGIIPVLGATNYAQRFQGRVTMTADESTTTAYMELSGLRSEDTAVYYCARGRSWGFDYWGHGTLITVSS
VL: DIVMTQTPLSLPVTPGQPASISCKSSQSLLHSDGNTYLDWYLQKPGQSPQLLIYTLSHRASGVPDRFSGSGSGTDFTLKISRVEADDVGLYYCMQRIEFPYTFGQGTKVEIK
B5: WM-A1-3106 (antibody, V domains shown)
VH: QVQLVESGGGVVPPGGSVRLSCAASGFTFGDYAMHWVRQAPGKGLEWVSLISGDGGTTYYGDSVKGRYTISRDNSKNSLYLQMNSLRAEDTAVYYCARGGRVYGMDVWGQGTTVTVSS
VL: DIQMTQSPSSLSASVGNRVTITCRASQGISVWLAWFQQKPETAPKSLIYGSSNLQSGVPSRFSGSGSGTDFTLTINNLQPEDFATYYCQQYKASPPTFGGGTKVDIK
B6: WM-A1-2608 (antibody, V domains shown)
VH: QVQLVQSGGGLVQPGGSLRLSCEASGFAFRRYEMNWVRQTPGKGLEWIAYINSGGSVKVYADSVKGRFAISRNDSKNSLYLQMNSLRAEDTAVYYCARAGNAFGTFDYWGQGTLVTVSS
VL: DIQMTQSPSSVSASVGDRVTITCRASQDISRWLAWYQQKPGKAPKRLMYAASVLDVGVPSRFSGSGSGTDFTLTISNLQPEDFATYYCQQPISFPLTFGGGTKVDIK
B7: WM-A1-3128 (antibody, V domains shown)
VH: QVQLVESGGGVVQPGKSLRLSCAASGFSLRTYGMHWVRQAPGKGLEWVANIWHDGSHTFYADSVQGRFTVSRDNSANLLFLQMNSLRAEDTAVYYCARGGSYSRYSDAFDIWGQGTVITVSS
VL: DIQMTQSPGTLSLSPGERATLSCRASQSVSSSYLAWYQQKPGQAPRLLIYDASNRATGIPARFSGTGSGTDFTLTISSLEPEDFAVYYCQQRSNWPLTFGGGTKVEIK

As a reminder, the Kd is a measure of binding affinity in units of concentration. Low values mean higher affinity, high ones lower affinity.

This experiment has as its target IGSF1 항원 (IGSF1 카복시 말단 도메인의 세포외 도메인 - 인간 Fc - his tag 융합 단백질) (human) (UniProt Q8N6C5). The experiment is described as follows: ELISA; human IGSF1 antigen diluted 1/3 from 100 nM to 0.046 nM; fit in GraphPad Prism 6. Background: In an ELISA, binding on a coated surface is turned into a signal by an enzyme label.
For the molecule B1, the Kd was determined as 0.1 nM.
Take B2: the Kd was 29.5 nM.
Molecule B3 displayed a Kd of 300 nM.
For the molecule B4, the Kd is 18.8 nM.
The result for B5 reads 20.8 nM.
In the case of B6, the dissociation constant (Kd) was determined as 0.097 nM.
Molecule B7 returned a Kd of 27.2 nM.
